Patent US20240190986A1 (ZHEJIANG NANOMAB TECHNOLOGY CENTER, published 2024)

B1: M003-IgG4 (antibody, V domains shown)
VH: QVQLVESGGGLVQAGGSLRLSCTASGNIFSINAMGWYRQPPGKEWERELVATISSTNSDNTYYKESVKGRFTISTNTAKNTWYLQMNSLKPEDTAMYYCAAENFDRKDRYWAQGTQVTVSS
notes: also called M003 heavy chain antibody
B2: M119-IgG4 (antibody, V domains shown)
VH: EVQLVESGGGLVQPGGSLRLSCVASGSDLSFDAMGWYRQFSATVRERQLVVATSRDGRIYYGDSVKGRFTASRDNLKNSVDLEMNNLKPEDTAIYYCAAGDDPKNYDWGPGTQVTVSS
notes: also called M119 heavy chain antibody
B3: M344-IgG4 (antibody, V domains shown)
VH: QVQLVESGGGLVQSGGSLRLSCVASGSAFSFDAMGWYRQFSATRRERQLVVATSRDGRTYYADSVKGRFTATRDNSKNSLYLEMNSLKPEDTAIYYCAAGDDPKNYSWGQGTQVTVSS
notes: also called M344 heavy chain antibody
B4: M156-IgG4 (antibody, V domains shown)
VH: QVQLVESGGGLVQAGGSLRLSCAVSGISFEYYAIGWFRQAPGKEREAVSCTTSGTTSGGGVTDYADSLKGRFTISRDVAKNTVYLQMNNLTPEDTAVYYCAADIHCRGYVLFVPSDFGNWGQGTQVTVSS
notes: also called M156 heavy chain antibody
B5: M044-IgG4 (antibody, V domains shown)
VH: QVQVVESGGGFVQAGGSLRLSCAASTPIISIAYMGWYRQISEKERQLVATINSGGKTYYADSVKGRFTISRDNAKNTLYLQMNMLKPEDTGMYYCAASNKDYNDYDPDWGQGTQVTVSS
notes: also called M044 heavy chain antibody
B6: M129-IgG4 (antibody, V domains shown)
VH: QVQLVESGGGSAQAGGSLILSCVASANLFTIDALGWYRQAPGPKRELVAAISSGGNKYYADAVKGRFTISRDTLTKTMWLQMNNLKPEDTAMYYCAAEDYGLGQRSWGMGTQVTVSS
notes: also called M129 heavy chain antibody
B7: M119 (VHH)
VHH: B2 VH
notes: Nanoantibody in TG1 supernatant in the screening ELISA; also called clone M119
B8: M344 (VHH)
VHH: B3 VH
notes: Nanoantibody in TG1 supernatant in the screening ELISA; also called clone M344
B9: M118 (VHH)
VHH: EVQLVESGGGLVQAGGSLTLSCAASEHTFTIDAMGYYRQIPGRRNERQLVAAAGRTGTTYYNDAVKDRFTIYRDTSKETIILQMNNLRPEDTTMYYCAVERYSDQSRFFGPGTQVTVSS
notes: Nanoantibody in TG1 supernatant in the screening ELISA; also called clone M118
B10: M137 (VHH)
VHH: QVQLVESGGGLVQAGGSLSLSCAASGSLSSINAMGWYRQLPEMRQLVATMGSDGKTYYADSVKGRFTISRDYAKYTVSLQMNNLRPEDTAIYYCAADRFGAPIHDVDYWGKGTLVTVSV
notes: Nanoantibody in TG1 supernatant in the screening ELISA; also called clone M137
B11: M004 (VHH)
VHH: EVQLVESGGGLVQAGGSLRLSCAASESISSIAYMGWYRRISEKERNLVATISSTGSTYYADSVKGRFTISRDNAKNTMYLQMNRLKPEDTAIYYCAASNKAYNDYDPDWGQGTQVTVSS
notes: Nanoantibody in TG1 supernatant in the screening ELISA; also called clone M004
B12: M143 (VHH)
VHH: EVQLVESGGGLVQAGGSLRLSCSASEKTFSIKYMGYYRQGPGIERKLVATIDTDGKTWYADSVKGRFTISRENGENEIGLEMNRLKPEDTAMYYCAGETGTYPKPEYWGQGTQVTVSS
notes: Nanoantibody in TG1 supernatant in the screening ELISA; also called clone M143
B13: M156 (VHH)
VHH: B4 VH
notes: Nanoantibody in TG1 supernatant in the screening ELISA; also called clone M156
B14: M182 (VHH)
VHH: QVQLVESGGGSVQAGGSLTLSCAASGAVSSINAMGWYRQTPEKVRQLVATMGSGGNTYYAASVKGRFTISRDYAKNTVALQMNHLLPEDTAVYYCAADRFGADIREVDYWGKGTQVTVSS
notes: Nanoantibody in TG1 supernatant in the screening ELISA; also called clone M182
B15: M191 (VHH)
VHH: QVQLVESGGGLVQAGGSLRLSCAASASMGSISNMGWYRQAPGKERGNERNLVATIGSDGRTYYADSVKGRFTISRDNVKNTMILQMNFLKPEDTAMYYCAVEDRQRPGTENYYWGQGTQVTVSS
notes: Nanoantibody in TG1 supernatant in the screening ELISA; also called clone M191
B16: M132 (VHH)
VHH: QVQLVESGGGLVQAGGSLSLSCVASGDAFSFDAMGWYRQFSGKVNERQLVVATSRDGRTAYGERVKGRFTASRDNSKNTLSLVMNNLQVEDTAIYYCAAGDDPKDYYWGQGTQVTVSS
notes: Nanoantibody in TG1 supernatant in the screening ELISA; also called clone M132
B17: M197 (VHH)
VHH: EVQLVESGGGLVQAGGSLRLSCAASGSHFGLNVVGWYRQAPGKQRELVASIGNSGRTTDYADSVKGRFTISKDNAQNTIYLQMNNLKPEDTAMYRCHLRVSVERGYWGQGTQVTVSS
notes: Nanoantibody in TG1 supernatant in the screening ELISA; also called clone M197
B18: M129 (VHH)
VHH: B6 VH
notes: Nanoantibody in TG1 supernatant in the screening ELISA; also called clone M129
B19: M224 (VHH)
VHH: QVQLVESGGGLVQPGGSLRLSCAASGFTFHYYAIGWFRQAPGKEREGVSCISSSGDSTWFSDSVKGRFTVSRDNAKNIVHLQMNNLKPEDTAVYYCAGTTRSGYVCYDAEPYDSWGQGTQVTVSS
notes: Nanoantibody in TG1 supernatant in the screening ELISA; also called clone M224
B20: M169 (VHH)
VHH: EVQLVESGGGTVQPGESLRLSCEASGAVSTINAMGWYRQTPEMRKLVATMGSGGNTYYADSVKGRFTISRDFAGNTVDLQMNDLKPEDTGVYFCAADKFGADIKEVAYWGKGTLVTVSS
notes: Nanoantibody in TG1 supernatant in the screening ELISA; also called clone M169
B21: M210 (VHH)
VHH: QVQLVESGGGLVQPGGSLRLSCAASGITLDNYAIAWFRQAPGKKREGVSCISSNGNTYYQPSVKGRFTIARDNAKNTVYLHMNNLNPEDTAVYYCQVGQFSSSTTPVQAMSVMSLYADWGQGTQVTVSS
notes: Nanoantibody in TG1 supernatant in the screening ELISA; also called clone M210
B22: M2339 (VHH)
VHH: QLQLGASGGGLVQPGGSLRLSCALSGFTLRELDEFAIGWFRQAPGKEREGVSCISGTGGITHYADSVKGRFTISRDIAKTTVYLQMNSLNSEDTAVYYCAADERCTDRLIRPPTYWGQGTQVTVSS
notes: Nanoantibody in TG1 supernatant in the screening ELISA; also called clone M2339
B23: M2339-IgG4 (antibody, V domains shown)
VH: B22 VHH
notes: also called M2339 heavy chain antibody

Each binder was assayed against T1, segment III of MSLN expressed on HEK293T cells (UniProt Q13421 487-598, limits assumed) (assay: flow cytometry on HEK293T cells expressing MSLN segment III, anti-human IgG PE secondary, fitted curve).
T1 construct: domain: segment III of MSLN; also called HEK293T MSLN-III cells; MSLN segment III protein overexpressing cell line
T1 sequence (Q13421 495-606 limits assumed): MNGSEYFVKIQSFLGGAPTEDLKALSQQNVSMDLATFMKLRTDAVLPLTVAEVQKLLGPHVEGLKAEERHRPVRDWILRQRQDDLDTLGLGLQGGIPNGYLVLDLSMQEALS

EC50 [nM]	Binder
4.95	B1
3.91	B2
3.39	B3
4.15	B4
10.6	B5
6.24	B6

The binders below were run against T2, MSLN on SKOV3 and Aspc-1 tumor cells (UniProt Q13421 296-598) (assay: flow cytometry on SKOV3 tumor cells, anti-human IgG PE secondary, fitted curve).
T2 construct: whole, on cells; Endogenous mesothelin of tumor cell lines; also called SKOV3 tumor cell line; AsPC-1 tumor cell line
T2 sequence (Q13421 other isoform, or with tags, fused parts or gaps limits assumed): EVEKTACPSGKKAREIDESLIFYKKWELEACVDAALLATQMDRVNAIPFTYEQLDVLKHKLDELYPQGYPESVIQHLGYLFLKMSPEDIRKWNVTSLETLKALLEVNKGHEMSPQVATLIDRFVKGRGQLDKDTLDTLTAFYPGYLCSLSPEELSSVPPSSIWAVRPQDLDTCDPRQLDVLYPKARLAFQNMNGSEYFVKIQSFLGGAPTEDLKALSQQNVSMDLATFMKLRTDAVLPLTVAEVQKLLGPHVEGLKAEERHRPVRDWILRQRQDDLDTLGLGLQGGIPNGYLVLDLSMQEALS

EC50 [nM]	Binder
1.62	B1
1.63	B2
1.36	B3
1.05	B4
0.512	B5
1.85	B6

What follows are binders tested against T2, MSLN on SKOV3 and Aspc-1 tumor cells (assay: flow cytometry on Aspc-1 tumor cells, anti-human IgG PE secondary, fitted curve).

EC50 [nM]	Binder
5.31	B1
4.25	B2
3.59	B3
5.37	B4
17.4	B5
2.79	B6

What follows are binders tested against T3, MD50 protein (assay: ELISA, antigen coated, TG1 supernatant).
T3 construct: range 487-580; also called proximal membrane fragment of mesothelin
T3 sequence (Q13421 495-588): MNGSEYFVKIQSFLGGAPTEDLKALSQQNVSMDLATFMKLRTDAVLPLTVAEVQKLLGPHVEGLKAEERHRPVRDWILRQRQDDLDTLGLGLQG

ELISA (OD450)	Binder
1.46	B7
2.08	B8
2.06	B9
2.09	B10
1.81	B11
1.3	B12
1.53	B13
1.14	B14
1.71	B15
1.17	B16
1.69	B17
1.66	B18
1.78	B19
1.19	B20
0.823	B21

These binders were tested against T4, MSLN·His protein (human, UniProt Q13421 296-580, limits assumed) (assay: ELISA, antigen coated, TG1 supernatant).
T4 construct: Bought protein; also called human MSLN·His antigen; not shown: His tag
T4 sequence (Q13421 other isoform, or with tags, fused parts or gaps limits assumed): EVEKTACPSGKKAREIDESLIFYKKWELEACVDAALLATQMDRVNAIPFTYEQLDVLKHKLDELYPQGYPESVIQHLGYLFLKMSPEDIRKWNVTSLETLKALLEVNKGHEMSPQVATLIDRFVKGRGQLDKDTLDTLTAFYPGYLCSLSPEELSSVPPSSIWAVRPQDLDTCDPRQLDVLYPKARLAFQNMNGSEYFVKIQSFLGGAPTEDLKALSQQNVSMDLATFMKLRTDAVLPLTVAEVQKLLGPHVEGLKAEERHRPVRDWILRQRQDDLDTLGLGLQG

ELISA (OD450)	Binder
2.15	B22

The binders below were run against T5, MSLN.Fc protein (human, UniProt Q13421 296-598, limits assumed) (assay: ELISA, antigen coated, TG1 supernatant).
T5 construct: also called MSLN·hFc; MSLN protein; not shown: human IgG Fc fragment

ELISA (OD450)	Binder
2.49	B7
2.22	B8
2.05	B9
1.27	B10
1.1	B11
1.62	B12
1.67	B13
1.03	B14
1.69	B15
1.34	B16
1.21	B17
2.4	B18
1.45	B19
1.36	B20
1.95	B21

What follows are binders tested against T4, MSLN·His protein (assay: SPR (Biacore), antibody captured on protein A, MSLN·His as analyte).
Procedure: (1) Detection of affinity at protein level: the binding kinetics and affinity of heavy chain antibody to human MSLN·His antigen were determined using surface plasmon resonance (SPR). The purified antibody was flowed through the sensor chips pre-immobilized with protein A, and the antibody was captured by protein A. Then five different concentrations of MSLN·His protein were used as the mobile phase, and the binding time and dissociation time were 30 min and 60 min, respectively. Biacore Evaluation Software 2.0 (GE) was used to analyze the binding rate (kon, or ka), dissociation rate (koff, or kd) and equilibrium constant (KD). The rabbit antibody YP218, which binds to segment III of mesothelin, was selected as a positive control (Zhang et al., Sci Rep 2015, 21; 5:9928).

Kd [nM]	koff [s⁻¹]	kon [M⁻¹ s⁻¹]	Binder
0.49	0.000429	882000	B1
0.12	9.58e-05	826000	B2
0.07	2.35e-05	359000	B3
0.09	5.4e-05	592000	B4
2.1	7.5e-05	53700	B5
0.04	5.37e-05	1.4e+06	B6
0.264	1.82e-05	69000	B23
